According to publication PMC9596428:

Legend:
[1] = target: mVenus-tagged CaMKIIα K42R mutant holoenzyme (mouse) (UniProt P11798); assay: FRET or BRET; in vitro time-lapse binary-FRET (mVenus lifetime for hetero-FRET to mCherry, anisotropy for homo-FRET); V-CaMKII homogenate (15-20 nM holoenzyme) with 10 µM purified NR2B fragment in 1x kinase buffer, 1 mM DTT, 1 mM CaCl2, 1 mM ATP, 1 mM MgCl2, 5 µM calmodulin; room temperature; followed over 3 h
[2] = target: mVenus-tagged CaMKIIα holoenzyme (mVenus-mCaMKIIα), wild type (mouse) (UniProt P11798); assay: as above

hetero-FRET efficiency [1]: 12.6%
hetero-FRET efficiency [2]: 11.9%
Substance: mCherry-tagged NR2B binding fragment (6His-mCherry-Flag-NR2B 1265-1320) (from UniProt Q13224 1265-1320) (domain or fragment)
